Measurements reported in patent US20240317851A1 (LANOVA MEDICINES, published 2024).
Changes are numbered by the printed parent chain.

T1: human Claudin 9 (human, UniProt O95484 1-217)
T1 construct: whole, on cells; also called CLDN9; CLND9
T1 sequence (looked up): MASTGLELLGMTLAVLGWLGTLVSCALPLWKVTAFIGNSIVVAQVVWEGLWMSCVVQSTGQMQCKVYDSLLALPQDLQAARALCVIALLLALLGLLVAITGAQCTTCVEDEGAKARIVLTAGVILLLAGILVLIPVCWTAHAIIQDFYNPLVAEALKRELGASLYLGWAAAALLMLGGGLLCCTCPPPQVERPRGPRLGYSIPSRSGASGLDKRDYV

T2: human Claudin 6 (human, UniProt P56747 1-220)
T2 sequence (looked up): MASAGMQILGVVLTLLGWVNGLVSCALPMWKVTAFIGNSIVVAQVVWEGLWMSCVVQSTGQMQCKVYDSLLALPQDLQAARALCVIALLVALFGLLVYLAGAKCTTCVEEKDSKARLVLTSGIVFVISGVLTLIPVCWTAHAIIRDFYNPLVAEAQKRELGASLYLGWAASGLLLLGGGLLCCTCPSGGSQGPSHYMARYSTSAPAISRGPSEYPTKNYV

T3: human Claudin 3 (human, UniProt O15551 1-220)
T3 construct: whole, on cells; also called CLDN3
T3 sequence (looked up): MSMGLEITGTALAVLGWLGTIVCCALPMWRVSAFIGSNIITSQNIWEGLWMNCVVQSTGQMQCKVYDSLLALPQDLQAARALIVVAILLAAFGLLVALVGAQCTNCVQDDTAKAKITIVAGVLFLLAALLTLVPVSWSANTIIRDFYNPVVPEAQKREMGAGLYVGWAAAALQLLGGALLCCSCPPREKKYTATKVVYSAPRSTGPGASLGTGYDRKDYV

B1: 97-C10E1-2-P1.z3 (antibody, V domains shown)
VH: QVQLVQSGAEVKKPGASVKVSCKASGYAFTGYTMNWVRQAPGQGLEWIGLSNPYNAGTIYNQKFKGRVTMTVDKSTSTVYMELSSLRSEDTAVYYCARNYYYGSSYAYYYAMDYWGQGTTVTVSS
VL: DAQMTQSPSSLSASVGDRVTITCRSSTGAVTTSNYANWVQQKPGKAPKLLIGGTNNRAPGVPSRFSGSGSGTDATLTISSLQPEDFATYYCALWYSNHWVFGGGTKVEIK
B2: 97-C10E1-2-P1.z6 (antibody, V domains shown)
VH: B1 VH with V5Q, G44N, M70L, S84L
VL: EAVMTQSPATLSVSPGERATLSCRSSTGAVTTSNYANWVQQKPGQAPRLLIGGTNNRAPGIPARFSGSGSGDEATLTISSLQSEDFAVYFCALWYSNHWVFGGGTKVEIK
B3: 97-C10E1-2-P1.z14 (antibody, V domains shown)
VH: B1 VH with V5Q, V18M, V20I, G44N, V68A, M70L, V79A, S84L
VL: B1 VL with P47F, L49G, S63A, G69L, T75A, Y90F
B4: 97-C10E1-2-P1.z8 (antibody, V domains shown)
VH: B1 VH with V5Q, G44N, M70L, S84L
VL: B1 VL
B5: 97-C10E1-2-P1.z1 (antibody, V domains shown)
VH: B1 VH
VL: B2 VL
B6: 97-C10E1-2-P1.z15 (antibody, V domains shown)
VH: B1 VH with V5Q, V18M, V20I, G44N, V68A, M70L, V79A, S84L
VL: DIVVTQSPSSLSTSVGDRVTITCRSSTGAVTTSNYANWVQEKPGKAFKGLIGGTNNRAPGVPARFSGSLSGDDAALTISSAQPEDFATYFCALWYSNHWVFGGGTKVEIK
B7: 97-C10E1-2-P1.z12 (antibody, V domains shown)
VH: B1 VH with V5Q, V18M, V20I, G44N, V68A, M70L, V79A, S84L
VL: B2 VL with M4V, Q41E, P47F, L49G, G69L
B8: 97-C10E1-2-P1.z13 (antibody, V domains shown)
VH: B1 VH with V5Q, V18M, V20I, G44N, V68A, M70L, V79A, S84L
VL: B1 VL
B9: 97-C10E1-2-P1.z11 (antibody, V domains shown)
VH: B1 VH with V5Q, V18M, V20I, G44N, V68A, M70L, V79A, S84L
VL: B2 VL
B10: 97-C10E1-2-P1.z10 (antibody, V domains shown)
VH: B1 VH with V5Q, G44N, M70L, S84L
VL: B6 VL
B11: z5-LM-D03 (antibody, V domains shown)
VH: B1 VH
VL: B6 VL
modifications: LM-D03 conjugated to the antibody (structure only as a drawing); residues and drug load not stated
B12: z5-DXD (antibody, V domains shown)
VH: B1 VH
VL: B6 VL
modifications: DXD conjugated to the antibody; residues and drug load not stated
B13: z5-LM-D01 (antibody, V domains shown)
VH: B1 VH
VL: B6 VL
modifications: LM-D01 conjugated to the antibody (structure only as a drawing); residues and drug load not stated
B14: 97-C10E1-2-P1.z2 (antibody, V domains shown)
VH: B1 VH
VL: B2 VL with M4V, Q41E, P47F, L49G, G69L
B15: 97-C10E1-2-P1.z5 (antibody, V domains shown)
VH: B1 VH
VL: B6 VL
notes: also called candidate antibody

The binders below were run against T1, human Claudin 9 (assay: flow cytometry, HEK293/H_CLDN9 cells).
Description: In this example, cell-based binding of z5 toward human CLDN9 engineering expressing cells were assessed using flow cytometry.
(§1) Briefly, 2 cell lines were incubated with antibodies (from 100 nM, 6 folds dilution, 8 points) at 4° C. for 60 minutes. Cells were pelleted and washed twice with 2% FBS/PBS buffer, and stained with fluorescent conjugated secondary antibody at 4° C. for 30 minutes. After that the cells were washed twice and resuspended in 80 μL of 2% FBS/PBS buffer. Fluorescent signal of binding was detected using Agilent. The EC50 was calculated using the GraphPad software.

Row | Binder | binding result
1 | B1 | no binding (tested: 100 nM (highest concentration tested))
2 | B2 | no binding (tested: 100 nM (highest concentration tested))
3 | B3 | no binding (tested: 100 nM (highest concentration tested))
4 | B4 | no binding (tested: 100 nM (highest concentration tested))
5 | B5 | no binding (tested: 100 nM (highest concentration tested))
6 | B6 | no binding (tested: 100 nM (highest concentration tested))
7 | B7 | no binding (tested: 100 nM (highest concentration tested))
8 | B8 | no binding (tested: 100 nM (highest concentration tested))
9 | B9 | no binding (tested: 100 nM (highest concentration tested))
10 | B10 | no binding (tested: 100 nM (highest concentration tested))

The binders below were run against T2, human Claudin 6 (assay: cell-based or functional assay).

Row | Binder | Min cell viability, OV90 (CLDN6 low) | Min cell viability, OVCAR-3 (CLDN6 mid) | Min cell viability, PA-1 (CLDN6 high)
11 | B11 | 30.4% | 20.3% | 12.1%
12 | B12 | 90.5% | 24.5% | 14.1%
13 | B13 | 87.9% | 0.2% | 7.75%

Each binder was assayed against T3, human Claudin 3 (assay: flow cytometry, CHOK1/H_CLDN3 cells, Ab titrated from 100 nM).
Description: (§2) In this example, cell-based binding of hu Abs on human CLDN3 expressing cells were assessed using flow cytometry.
as §1, with “the CHOK1/H_CLDN3 cells” for “2 cell lines”, “hu-Abs” for “antibodies”, “points). After incubation” for “points)”

Row | Binder | Top MFI
14 | B1 | 133
15 | B2 | 139
16 | B3 | 158
17 | B4 | 137
18 | B5 | 136
19 | B14 | 247
20 | B6 | 138
21 | B15 | 254
22 | B7 | 130
23 | B8 | 131
24 | B9 | 118
25 | B10 | 160

Each binder was assayed against T1, human Claudin 9 (assay: flow cytometry, HEK293/H_CLDN9 cells, Ab titrated from 100 nM).
Description: In this example, cell-based binding of hu Abs on human CLDN9 expressing cells were assessed using flow cytometry.
as §1, with “the HEK293/H_CLDN9 cells” for “2 cell lines”, “hu-Abs” for “antibodies”, “points). After incubation” for “points)”, “software (LaJolla, CA).” for “software.”

Row | Binder | Top MFI
26 | B1 | 594
27 | B2 | 417
28 | B3 | 661
29 | B4 | 542
30 | B5 | 479
31 | B14 | 2520
32 | B6 | 186
33 | B15 | 1560
34 | B7 | 149
35 | B8 | 315
36 | B9 | 287
37 | B10 | 258

These binders were tested against T3, human Claudin 3 (assay: flow cytometry, CHOK1/H_CLDN3 cells).
Description: as §2
as §1, with “the CHOK1/H_CLDN3 cells” for “2 cell lines”, “hu-Abs” for “antibodies”, “points). After incubation” for “points)”

Row | Binder | binding result
38 | B1 | no binding (tested: 100 nM (highest concentration tested))
39 | B2 | no binding (tested: 100 nM (highest concentration tested))
40 | B3 | no binding (tested: 100 nM (highest concentration tested))
41 | B4 | no binding (tested: 100 nM (highest concentration tested))
42 | B5 | no binding (tested: 100 nM (highest concentration tested))
43 | B14 | no binding (tested: 100 nM (highest concentration tested))
44 | B6 | no binding (tested: 100 nM (highest concentration tested))
45 | B15 | no binding (tested: 100 nM (highest concentration tested))
46 | B7 | no binding (tested: 100 nM (highest concentration tested))
47 | B8 | no binding (tested: 100 nM (highest concentration tested))
48 | B9 | no binding (tested: 100 nM (highest concentration tested))
49 | B10 | no binding (tested: 100 nM (highest concentration tested))

These binders were tested against T2, human Claudin 6 (assay: flow cytometry, HEK293/H_CLDN6 cells, Ab titrated from 100 nM).
Description: In this example, cell-based binding of humanized antibodies (hu Abs) on human CLDN6 expressing cells were assessed using flow cytometry.
as §1, with “the HEK293/H_CLDN6 cells” for “2 cell lines”, “hu-Abs” for “antibodies”, “points). After incubation” for “points)”

Row | Binder | Top MFI
50 | B1 | 27400
51 | B2 | 32200
52 | B3 | 115000
53 | B4 | 16300
54 | B5 | 45100
55 | B14 | 207000
56 | B6 | 128000
57 | B7 | 107000
58 | B8 | 15500
59 | B9 | 31000
60 | B10 | 121000
